This is an account of results in the DeepSol protein solubility set.

The series can be described thus: soluble on expression in E. coli; label from the status in PepcDB or PDB records.
Take “MAEERGRPQYRPNCNGLSSYYRERFGSHSPEVYLNLRISGFDDRLEREQIKQYLTQELKKYAPFEIKVVKNPEEDERLAYVNFERNDCARKVRYTLMDRLKSVLGKRVQCDPAGILRDQEGKYIPDRFNRAQHGADSKREGGSGSGNRGRPTKEPSTWRLKQDDDEATRTLFVGNMPSDVKEREIRHVFEEHGKVEEVDIKTPINTDAAYAFVMFQTVDQAIQAKAEEQDRPIRAGGSRMKIGYGKSQVSRRLFVGGLGSWCDKEILQKAFGEFGFVENIDYDHGQPYAYVVYENTHTSQEACRSLRGACISKGNHPIMVDYAKDLTAQPEKQQFMRKRRASKSPVGASAVRTPPGSPKDVVRNFAELEEAYAATWSGKMALKKTDYPVKFYRVYGAERLPVKLLRDEDDVPLRLLITQRLSLSSQNLLFDKLASCSSKELSLGVITGKKELSDLQPLVNYFTNKEAAGVVTVPGGILYIFPFCEFALKLLAEFTPQVNVFNENCPFLLGALAVRAPGTP”: the “soluble on expression in E. coli” value was “not soluble”.

For the sequence “MGSDKIHHHHHHMKTLAQNIQEKLKASGLTQKELAERANISQVMVHKLISGKAKESSKLVAIAGVLGCTAEELMYGLEKHVPTSNAEWAGPMETWDSNTPLNDDEVEIPFYMEVELAAGHGIAEASEYHGPKLRFAKSTLRKSSVDPTNAACVRVSGNSMEPVLPSGSTVGVDTSQTDVIDGKMYAINHDGMLRVKTLYKLPGGGLRLRSYNIDEWPDERYEGEAIKQIKIIGKVFWYSVLM”, the “soluble on expression in E. coli” value was “not soluble”.

As for “MDKLNKITVPASQKLRQLQKMVHDIKNNEGGIMNKIKKLKVKAPPSVPRRDYASESPADEEQQWSDDFDSDYENPDEHSDSEMYVMPAEENADDSYEPPPVEQETRPVHPALPFARGEYIDNRSSQRHSPPFSKTLPSKPSWPSEKARLTSTLPALTALQKPQVPPKPKGLLEDEADYVVPVEDNDENYIHPTESSSPPPEKAPMVNRSTKPNSSTPASPPGTASGRNSGAWETKSPPPAAPSPLPRAGKKPTTPLKTTPVASQQNASSVCEEKPIPAERHRGSSHRQEAVQSPVFPPAQKQIHQKPIPLPRFTEGGNPTVDGPLPSFSSNSTISEQEAGVLCKPWYAGACDRKSAEEALHRSNKDGSFLIRKSSGHDSKQPYTLVVFFNKRVYNIPVRFIEATKQYALGRKKNGEEYFGSVAEIIRNHQHSPLVLIDSQNNTKDSTRLKYAVKVS”, the “soluble on expression in E. coli” value is recorded as “not soluble”.

Regarding “SLGRTRRKNKPITIKSYVVSSDTWQLGCIEYGSHSMSGQRAYNEDRVCVVPSVDVCTREGCCKAHTKAMFYAVYDGHNGEEAVNYVQEHLHKNIFRSRSFHGDVSKAIRAGFIATDNALRSMVMEKIRGEGFEDQDISPFSSGTTACTAVVRDMQLYIGNLGDSRCVLSRAGRSHLITVDHSCRTNADEQQRVREDGGHYDTDGYLNGAIGVSRAFGAFDKNCGQKLSGLTCEPQIHKETLRREDEFMIIACDGVFDVISCQEAVNCPPERLQHKDKRPADWTPTTPGLGEEKAATAEARPSSSSRSPLAATQSGASAGDRTGVSG”, the “soluble on expression in E. coli” value was “not soluble”.

Take “IKPGAKMGVIGSGIASVYAKEALQELGLEASFLKIGTYPVPKKLILELLSTVDTVLIFEELEPVVEEQVRILAQEAGLEVSVLGKEGGFVSREGELDVSAFLEALRKAFDLDIEPDSGKVPLELAPRPPSLCAGCSHRATFYSMKKVFGKDAIYPSDIGCYTLGIQSGTVETTLCMGSSISIASGLYHAGEKRPICCSIGDSTFFHTGMNSLLNAVFNKANITVTILDNRITAMTGHQPNPGVGFTVTGEPTVEVSLAELCKAMGAGFVTVV”: the “soluble on expression in E. coli” value is listed as “not soluble”.

Consider “MGSDKIHHHHHHMLTLRQALLALFHQFETLFHYLEHLCRHRSAARPGRSSFLHSSVEIQVKETLIRNLWYVAGTSDEFAPGQLVGQTIVGLPLVLWRPEAGGEVVAFDGRCCHKRMPLAAGKLLADGTLECAYHGLCFDSAGKCVKIPSQPGRAIPSRAKLRPYPIVEQDGMVWIWMGDDANPALRPPRIPELASPEWEAIRVQNAEVPTNYLLLIENLLDISHFYPLHDGNIGDIANSEIPVEFSHEGVQGNRSVTSVRKAESYRHPPYLEDFFGYELVDRHHSHSMISPAAIRVDLRCAPPGRLETEDERGYILTHLITPIDERHHRWRVIAACRAGHRWPADPSVSTVARVAEKFPGVIAQDLWALTEQQKMLDLADTHYLGEMHLRADTGILKAREIVRDMVAAEAQPASQAVAA”, for which the “soluble on expression in E. coli” value is “not soluble”.

For the sequence “AIASFITNPSIFSGLKLSNAQRKVKSDLECIRKSKLFQRKRIVPERRRLGLVACGTEEDRTHQRSQWGGEDSDYFGRDPRKETEFWMEHAKEVLESKEVADAVEAHKKSGSSNLTEEQKAWLEFARSITPKPEDEE”, the “soluble on expression in E. coli” value is reported as “soluble”.

As for “MSLKEDFDLKTHIESSGHGVDTCLHVVLSSKVCRGYLVKMGGKIKSWKKRWFVFDRLKRTLSYYVDKHETKLKGVIYFQAIEEVYYDHLRSAAKKRFFRFTMVTESPNPALTFCVKTHDRLYYMVAPSAEAMRIWMDVIVTGAEGYTQFMNEGHHHHHH”, the “soluble on expression in E. coli” value is listed as “not soluble”.

For “MESYLRLSEVDKQILHSHALMLDGLGNFFGSTHEVILHSLENLESSAIKVINGHFSNRKEGAPITDMALKMLSQVESEHDYAVKPYYNKNQKGVILKSSTIPVIGENDRIIGLICINMHLEMPLIDYLQDLLPSGQQNDMSQELKNSEHFSDNIDELITTSLTKVKQAVESDPNVSHLNQNKEIVIRLYDQGIFNLKDSVIKIADRLGISKNTIYLHIRNHKKEEA”, the “soluble on expression in E. coli” value is “not soluble”.

For the sequence “MDSVIQKRIFVGNIFHNADDCYSELLDRFGKFGDCQDFQFEKHNHFAFIDIRFNDEADFNKLRKSFNNVKFKGNILKVDEAKPNWESTWAVQHAKDLKEDIILNAKMKKKNWQHYKKMENVAKSWKDHKEVIAGRMREAPRKRSQLRNITFRINVNGSLKVYKCYKTKLWGYERNKELNDLVYKFTNNFWKNGYNHIVDRLDYSRAVKTVRFKNGLKQLTVSKDENVCSGEMDSDENMSEEEKEKNNVILNDLLKDFDFDKPMTLNDSDEELLTEQRKGEEEEEEEEEKEVNAPEYENVNKTKDQSTLPQEKPEERKEQDEGDGQEDNEFIPTFTKEIGQGTISNTETLRNLFNPNEAEPVSQFKLIEDSDNDIDHAKDVDVNQLEEEVSKSSDTLGLTSAPVPHVSRDKDNKNFLFFPHLQSPFLVGQTQLSKVRAPGRETMLSNWDEEFWANRGNWTRDMRRKMKDALKHRKRKQSKSGLLL”, the “soluble on expression in E. coli” value is on record as “not soluble”.

On to “MDHYLVPYNQRANHSKPIPPFLLDLDSQSVPDALKKQTNDYYILYNPALPREIDVELHKSLDHTSVVCCVKFSNDGEYLATGCNKTTQVYRVSDGSLVARLSDDSAANKDPENLNTSSSPSSDLYIRSVCFSPDGKFLATGAEDRLIRIWDIENRKIVMILQGHEQDIYSLDYFPSGDKLVSGSGDRTVRIWDLRTGQCSLTLSIEDGVTTVAVSPGDGKYIAAGSLDRAVRVWDSETGFLVERLDSENESGTGHKDSVYSVVFTRDGQSVVSGSLDRSVKLWNLQNANNKSDSKTPNSGTCEVTYIGHKDFVLSVATTQNDEYILSGSKDRGVLFWDKKSGNPLLMLQGHRNSVISVAVANGSSLGPEYNVFATGSGDCKARIWKYKKIAPN”, for which the “soluble on expression in E. coli” value is listed as “soluble”.

As to “HGYVESPASRAYQCKLQLNTQCGSVQAEPQSVEGLKGFPQAGPADGHIASADKSTFFELDQQTPTRWNKLNLKTGPNSFTWKLTARHSTTSWRYFITKPNWDASQPLTRASFDLTPFCQFNDGGAIPAAQVTHQCNIPADRSGSHVILAVWDIADTANAFYQAIDVNLSK”, the “soluble on expression in E. coli” value is given as “soluble”.

Regarding “MQSAYSFLPQVIAHRGSSGQAPENTLASLHLAGQQGIKWVEIDVMLSGDGIPVIFHDDYLSRTTDGDGLIYKTPLAELKQLDAGSWKGQEYQQETIPTLLEAIEVISQYGMGLNLELKPCEGLEEETIAASVEVLKQHWPQDLPLLFSSFNYFALVSAKALWPEIARGYNVSAIPSAWQERLEHLDCAGLHIHQSFFDVQQVSDIKAAGYKVLAFTINDESLALKLYNQGLDAVFSDYPQKIQSAIDSHIN”, the “soluble on expression in E. coli” value is on record as “soluble”.

In the case of “MGSDKIHHHHHHMQENRYNTCDRFLGGLEKDFIITEQIEDSPLTSEPSFLDYGIIAVCNRGSAIIHLLDNKHVWNKNELIFLFPRQLCSMRNVSEDFSAKFIIIPHVLHGDVLSSLRHFDPGFHFFVKDHFYYNIEDNNGIERFQSFCKLIENELERYRGNGLLRERIICYLGIFYMDVYDYYVKVRKKIPFRTSLRKEQLIYDFCSLVAENFKNHKNVGFYADKLNITTTYLSAIMNERCGISAKEFLSIYIVLEVKSLLRDSRLNIQEIAILTNFPSQSTLNRFFRQRTGMTLSQYRKHIFST”, the “soluble on expression in E. coli” value is “not soluble”.
